Assay results reported in article PMC11797056, “The ATPase activity of yeast chromosome axis protein Hop1 affects the frequency of meiotic crossovers” (Nucleic Acids Research, 2024).

T1: Hop1 K65A,N67Q (Saccharomyces cerevisiae, UniProt P20050 1-605, K65A;N67Q)
T1 sequence: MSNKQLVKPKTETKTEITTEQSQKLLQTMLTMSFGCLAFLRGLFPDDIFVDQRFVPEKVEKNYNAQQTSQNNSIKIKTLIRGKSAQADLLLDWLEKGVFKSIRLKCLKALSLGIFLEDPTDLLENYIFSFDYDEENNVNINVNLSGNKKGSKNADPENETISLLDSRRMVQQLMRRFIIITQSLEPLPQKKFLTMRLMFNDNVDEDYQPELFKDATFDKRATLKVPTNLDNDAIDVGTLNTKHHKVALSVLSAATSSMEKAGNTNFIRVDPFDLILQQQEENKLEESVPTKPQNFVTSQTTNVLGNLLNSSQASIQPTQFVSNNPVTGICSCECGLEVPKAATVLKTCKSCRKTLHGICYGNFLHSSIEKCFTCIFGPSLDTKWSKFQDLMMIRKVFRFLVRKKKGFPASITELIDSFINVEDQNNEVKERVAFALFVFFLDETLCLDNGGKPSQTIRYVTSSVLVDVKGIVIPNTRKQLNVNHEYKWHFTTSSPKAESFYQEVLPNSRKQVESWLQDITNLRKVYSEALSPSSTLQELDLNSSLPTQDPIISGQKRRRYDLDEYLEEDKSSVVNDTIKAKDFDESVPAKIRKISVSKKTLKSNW


Tests used:
Hop1 K65A,N67Q [1] = biological target: T1, Hop1 K65A,N67Q; test: MST; 25 nM HJ; EMSA: 25 mM HEPES pH 7.5, 0.5 nM 32P-HJ, 37 C 15 min, 8% PAGE in TBE (25 mM Tris base pH 8.0, 25 mM boric acid, 0.5 mM EDTA) at 4 C; MST: 25 nM 6-FAM HJ, buffer not in material; conditions: protein: recombinant; tags: His6 (pET28a); label: 5'-6FAM on HJ02; four-way junction of 4 strands
Hop1 K65A,N67Q [2] = biological target: T1, Hop1 K65A,N67Q; test: EMSA; 0.5 nM HJ; EMSA: 25 mM HEPES pH 7.5, 0.5 nM 32P-HJ, 37 C 15 min, 8% PAGE in TBE (25 mM Tris base pH 8.0, 25 mM boric acid, 0.5 mM EDTA) at 4 C; MST: 25 nM 6-FAM HJ, buffer not in material; conditions: protein: recombinant; tags: His6 (pET28a); label: 5'-32P on HJ02; four-way junction of 4 strands

| Binder | Kd (Hop1 K65A,N67Q [1]) | binding signal (Hop1 K65A,N67Q [2]) |
| --- | --- | --- |
| Holliday junction (HJ), 6-FAM (structured_DNA) DNA 1: GACGCTGCCGAATTCTACCAGTGCCTTGCTAGGACATCTTTGCCCACCTGCCGGTTCACCC DNA 2: TGGGTGAACCTGCAGGTGGGCAAAGATGTCCTAGCAATGTAATCGTCAAAGCTTTATGCCGTT DNA 3: CAACGGCATAAAGCTTGACGATTACATTGCTAGGACATGCTGTCTAGAGGATCCGACTATCGA DNA 4: ATCGATAGTCGGATCCTCTAGACAGCATGTCCTAGCAAGGCACTGGTAGAATTCGGCAGCGT | 495 nM | – |
| Holliday junction (HJ), 32P (structured_DNA) DNA 1: GACGCTGCCGAATTCTACCAGTGCCTTGCTAGGACATCTTTGCCCACCTGCCGGTTCACCC DNA 2: TGGGTGAACCTGCAGGTGGGCAAAGATGTCCTAGCAATGTAATCGTCAAAGCTTTATGCCGTT DNA 3: CAACGGCATAAAGCTTGACGATTACATTGCTAGGACATGCTGTCTAGAGGATCCGACTATCGA DNA 4: ATCGATAGTCGGATCCTCTAGACAGCATGTCCTAGCAAGGCACTGGTAGAATTCGGCAGCGT | – | ~1.7 fold lower affinity than WT |
